Experimental data as given in US20080207503A1, “Composition and Treatment Methods for Coronary Artery Disease” (priority 2005, published 2008).

Assay: Sphingomyelinase treatment of ICP (hydrolysis of SPM, TLC, cholesterol release)
Format: biochemical, human
Description: FIG. 7A show the effect of hydrolyzing SPM on ICP by sphingomyelinase on the ICP SPM to PC ratio. Following incubation of ICP in 0.25 M Tris buffer containing 20 mM MgCl2 with 50 units of bacterial sphingomyelinase for 6 hrs at 37° C., the reaction of sphingomyelinase was stopped by adding EDTA and a subsequent wash. A change in the SPM to PC ratio of insoluble ICP was examined by TLC. SPM to PC ratios of control ICP (top) and sphingomyelinase-treated ICP (bottom) were 1.69 and 0.49, respectively.
FIG. 7B show the effect of hydrolyzing SPM on ICP by sphingomyelinase on the release of ICP cholesterol by apo HDL or R-HDL. ICP sphingomyelinase treatment was as described in FIG. 7A. Release of cholesterol from control or sphingomyelinase-treated ICP was then measured after incubation of ICP at ICP FC to apo HDL ratio=1:2.5 or ICP FC to R-HDL PC ratio of 1:10.
Treatment of ICP with bacterial sphingomyelinase hydrolyzed 70% of ICP SPM. […] Rather, the release of ICP cholesterol into TBS, apo HDL, or R-HDL was reduced by prior sphingomyelinase treatment of ICP (FIG. 7B). As a model of ICP, artificial multilamellar SPM vesicles enriched with FC (SPM/FC ratio=1) or containing no FC (control SPM) were incubated with R-HDL. Then, PC and SPM content in residual insoluble multilamellar SPM vesicles and solubilized vesicles were determined by TLC (FIG. 7C). After incubation of FC-enriched multilamellar SPM vesicles (SPM/FC+, FIG. 7C, lane 1) with R-HDL (lane 4), insoluble multilamellar vesicles contained not only SPM but also PC (lane 2), while the soluble fraction contained only PC (lane 3). In contrast, following incubation of FC-free multilamellar SPM vesicles (SPM/FC−, lane 5) with R-HDL (lane 8), the residual insoluble multilamellar vesicles contained SPM and no PC (lane 6), and the upper soluble fraction contained both SPM and PC (lane 7).

B1: bacterial sphingomyelinase: Bacterial (Bacilus cereus) sphingomyelinase from Sigma (protein, UniProt P09599 28-333, looked up)
Sphingomyelinase C: DTSTDQNNTLKVMTHNVYMLSTNLYPNWGQSQRADLIGAADYIKNQDVVILNEVFDNSASDRLLGNLKKEYPNQTAVLGRSNGNEWDKTLGSYSSSTPEDGGVAIVSKWPIVEKIQYVFAKGCGPDNLSNKGFVYTKIKKNDRFVHVIGTHLQAEDSMCGKTSPASVRTNQLKEIQDFIKNKNIPNDEYVLFGGDMNVNKINAENNSDSEYASMFKTLHASIPSYTGHTATWDATTNSIAKYNFPDSPAEYLDYIIASKDHANPSFIENKVLQPKSPQWTVTSWLKKYTYDDYSDHYPVAATISMK
For B1, the “ICP SPM hydrolyzed” value (50 units bacterial sphingomyelinase, 6 hrs, 37° C.) was 70%, the “release of ICP cholesterol into TBS, apo HDL or R-HDL after prior sphingomyelinase treatment (in words)” value (FIG. 7B) was “reduced” and the “ICP SPM/PC ratio after sphingomyelinase treatment” value (control ICP 1.69 / 1.6, TLC) was 0.49.
